Each block holds one binder with its values, some of them ahead of it.
Key:
[1] = molecular target: biotin beta-amyloid 1-42 peptide (Anaspec) (human); experiment: cell-based or functional assay; settings: scale: % Relative Potency
[2] = molecular target: Recombinant human amyloid β 1-42 peptide (rPeptide) (human); experiment: ELISA on plate-adsorbed recombinant human Aβ 1-42, anti-human IgG-HRP detection, parallel line analysis; mean of three assays; settings: scale: % Relative Potency

- Phagocytosis Reporter Cell Potency [1]: 99
B1: crenezumab (antibody, INN chains, looked up, V domains shown)
VH: EVQLVESGGGLVQPGGSLRLSCAASGFTFSSYGMSWVRQAPGKGLELVASINSNGGSTYYPDSVKGRFTISRDNAKNSLYLQMNSLRAEDTAVYYCASGDYWGQGTTVTVSS
VL: DIVMTQSPLSLPVTPGEPASISCRSSQSLVYSNGDTYLHWYLQKPGQSPQLLIYKVSNRFSGVPDRFSGSGSGTDFTLKISRVEAEDVGVYYCSQSTHVPWTFGQGTKVEIKR

- Phagocytosis Reporter Cell Potency [1]: 86
- Aβ Binding Potency (% Relative Potency) [2]: 84
B2: crenezumab light stress sample (2.4 million lux hours) (antibody, INN chains, looked up, V domains shown)
VH: B1 VH
VL: B1 VL
modifications: light-stressed degraded sample
